Source: the supplement of paper PMC5998384

What follows are substances tested on HeLa Kyoto (assay: melting temperature (median over replicates), in situ; higher = more thermally stable). Conditions: cell cycle stage: G1/S.
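Throughout, for melting temperature (median over replicates), in situ: HeLa Kyoto cells synchronized by double thymidine or nocodazole block, proteins quantified by TMT10plex mass spectrometry, three independent biological replicates.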
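Throughout, for solubility change mitosis vs G1/S (difference of NP-40 vs SDS log2 ratios): synchronized HeLa Kyoto cells (double thymidine block for G1/S, nocodazole release for mitosis), protein amounts in NP-40 versus SDS lysates quantified by mass spectrometry, three biological replicates.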

In order of rising melting temperature:
1. MREIVHIQAGQCGNQIGAKFWEVISDEHGIDPSGNYVGDSDLQLERISVYYNEASSHKYVPRAILVDLEPGTMDSVRSGAFGHLFRPDNFIFGQSGAGNNWAKGHYTEGAELVDSVLDVVRKECENCDCLQGFQLTHSLGGGTGSGMGTLLISKVREEYPDRIMNTFSVVPSPKVSDTVVEPYNATLSIHQLVENTDETYCIDNEALYDICFRTLKLATPTYGDLNHLVSATMSGVTTSLRFPGQLNADLRKLAVNMVPFPRLHFFMPGFAPLTARGSQQYRALTVPELTQQMFDAKNMMAACDPRHGRYLTVATVFRGRMSMKEVDEQMLAIQSKNSSYFVEWIPNNVKVAVCDIPPRGLKMSSTFIGNSTAIQELFKRISEQFTAMFRRKAFLHWYTGEGMDEMEFTEAESNMNDLVSEYQQYQDATAEEEGEMYEDDEEESEAQGPK [TUBB3]  52.3 °C
2. MEAAVAPGRDAPAPAASQPSGCGKHNSPERKVYMDYNATTPLEPEVIQAMTKAMWEAWGNPSSPYSAGRKAKDIINAARESLAKMIGGKPQDIIFTSGGTESNNLVIHSVVKHFHANQTSKGHTGGHHSPVKGAKPHFITSSVEHDSIRLPLEHLVEEQVAAVTFVPVSKVSGQAEVDDILAAVRPTTRLVTIMLANNETGIVMPVPEISQRIKALNQERVAAGLPPILVHTDAAQALGKQRVDVEDLGVDFLTIVGHKFYGPRIGALYIRGLGEFTPLYPMLFGGGQERNFRPGTENTPMIAGLGKAAELVTQNCEAYEAHMRDVRDYLEERLEAEFGQKRIHLNSQFPGTQRLPNTCNFSIRGPRLQGHVVLAQCRVLMASVGAACHSDHGDQPSPVLLSYGVPFDVARNALRLSVGRSTTRAEVDLVVQDLKQAVAQLEDQA [SCLY]  55.4 °C
3. MATKEKLQCLKDFHKDILKPSPGKSPGTRPEDEAEGKPPQREKWSSKIDFVLSVAGGFVGLGNVWRFPYLCYKNGGGAFLIPYFIFLFGSGLPVFFLEIIIGQYTSEGGITCWEKICPLFSGIGYASVVIVSLLNVYYIVILAWATYYLFQSFQKELPWAHCNHSWNTPHCMEDTMRKNKSVWITISSTNFTSPVIEFWERNVLSLSPGIDHPGSLKWDLALCLLLVWLVCFFCIWKGVRSTGKVVYFTATFPFAMLLVLLVRGLTLPGAGAGIKFYLYPDITRLEDPQVWIDAGTQIFFSYAICLGAMTSLGSYNKYKYNSYRDCMLLGCLNSGTSFVSGFAIFSILGFMAQEQGVDIADVAESGPGLAFIAYPKAVTMMPLPTFWSILFFIMLLLLGLDSQFVEVEGQITSLVDLYPSFLRKGYRREIFIAFVCSISYLLGLTMVTEGGMYVFQLFDYYAASGVCLLWVAFFECFVIAWIYGGDNLYDGIEDMIGYRPGPWMKYSWAVITPVLCVGCFIFSLVKYVPLTYNKTYVYPNWAIGLGWSLALSSMLCVPLVIVIRLCQTEGPFLVRVKYLLTPREPNRWAVEREGATPYNSRTVMNGALVKPTHIIVETMM [SLC6A6]  57.6 °C

Same assay, conditions: cell cycle stage: mitosis

In order of rising melting temperature:
1. MEAAVAPGRDAPAPAASQPSGCGKHNSPERKVYMDYNATTPLEPEVIQAMTKAMWEAWGNPSSPYSAGRKAKDIINAARESLAKMIGGKPQDIIFTSGGTESNNLVIHSVVKHFHANQTSKGHTGGHHSPVKGAKPHFITSSVEHDSIRLPLEHLVEEQVAAVTFVPVSKVSGQAEVDDILAAVRPTTRLVTIMLANNETGIVMPVPEISQRIKALNQERVAAGLPPILVHTDAAQALGKQRVDVEDLGVDFLTIVGHKFYGPRIGALYIRGLGEFTPLYPMLFGGGQERNFRPGTENTPMIAGLGKAAELVTQNCEAYEAHMRDVRDYLEERLEAEFGQKRIHLNSQFPGTQRLPNTCNFSIRGPRLQGHVVLAQCRVLMASVGAACHSDHGDQPSPVLLSYGVPFDVARNALRLSVGRSTTRAEVDLVVQDLKQAVAQLEDQA [SCLY]  51.5 °C
2. MELWPCLAAALLLLLLLVQLSRAAEFYAKVALYCALCFTVSAVASLVCLLRHGGRTVENMSIIGWFVRSFKYFYGLRFEVRDPRRLQEARPCVIVSNHQSILDMMGLMEVLPERCVQIAKRELLFLGPVGLIMYLGGVFFINRQRSSTAMTVMADLGERMVRENLKVWIYPEGTRNDNGDLLPFKKGAFYLAVQAQVPIVPVVYSSFSSFYNTKKKFFTSGTVTVQVLEAIPTSGLTAADVPALVDTCHRAMRTTFLHISKTPQENGATAGSGVQPAQ [AGPAT2]  52.2 °C
3. MREIVHIQAGQCGNQIGAKFWEVISDEHGIDPSGNYVGDSDLQLERISVYYNEASSHKYVPRAILVDLEPGTMDSVRSGAFGHLFRPDNFIFGQSGAGNNWAKGHYTEGAELVDSVLDVVRKECENCDCLQGFQLTHSLGGGTGSGMGTLLISKVREEYPDRIMNTFSVVPSPKVSDTVVEPYNATLSIHQLVENTDETYCIDNEALYDICFRTLKLATPTYGDLNHLVSATMSGVTTSLRFPGQLNADLRKLAVNMVPFPRLHFFMPGFAPLTARGSQQYRALTVPELTQQMFDAKNMMAACDPRHGRYLTVATVFRGRMSMKEVDEQMLAIQSKNSSYFVEWIPNNVKVAVCDIPPRGLKMSSTFIGNSTAIQELFKRISEQFTAMFRRKAFLHWYTGEGMDEMEFTEAESNMNDLVSEYQQYQDATAEEEGEMYEDDEEESEAQGPK [TUBB3]  54.3 °C
4. MATKEKLQCLKDFHKDILKPSPGKSPGTRPEDEAEGKPPQREKWSSKIDFVLSVAGGFVGLGNVWRFPYLCYKNGGGAFLIPYFIFLFGSGLPVFFLEIIIGQYTSEGGITCWEKICPLFSGIGYASVVIVSLLNVYYIVILAWATYYLFQSFQKELPWAHCNHSWNTPHCMEDTMRKNKSVWITISSTNFTSPVIEFWERNVLSLSPGIDHPGSLKWDLALCLLLVWLVCFFCIWKGVRSTGKVVYFTATFPFAMLLVLLVRGLTLPGAGAGIKFYLYPDITRLEDPQVWIDAGTQIFFSYAICLGAMTSLGSYNKYKYNSYRDCMLLGCLNSGTSFVSGFAIFSILGFMAQEQGVDIADVAESGPGLAFIAYPKAVTMMPLPTFWSILFFIMLLLLGLDSQFVEVEGQITSLVDLYPSFLRKGYRREIFIAFVCSISYLLGLTMVTEGGMYVFQLFDYYAASGVCLLWVAFFECFVIAWIYGGDNLYDGIEDMIGYRPGPWMKYSWAVITPVLCVGCFIFSLVKYVPLTYNKTYVYPNWAIGLGWSLALSSMLCVPLVIVIRLCQTEGPFLVRVKYLLTPREPNRWAVEREGATPYNSRTVMNGALVKPTHIIVETMM [SLC6A6]  57.2 °C

The substances below were run on HeLa Kyoto (assay: solubility change mitosis vs G1/S (difference of NP-40 vs SDS log2 ratios) (log2 ratio difference); higher = more soluble in mitosis). Conditions: not given.

In order of rising “solubility change mitosis (log2)” value:
1. MRPL57  -0.109
2. ACTR2  -0.105
3. ATP1A1  -0.0968
4. TPCN1  -0.0955
5. WDR61  -0.0946
6. CDC73  -0.0838
7. DLG1  -0.0806
8. SUPT5H  -0.0755
9. MRPL17  -0.0699
10. AKR1B1  -0.0682
11. KDM1A  -0.0676
12. UNC119  -0.0626
13. YTHDC1  -0.0521
14. PPIA  -0.0495
15. MRPL38  -0.0167
16. RNF167  -0.0145
17. ATP1B1  -0.0049
18. POLR2H  -0.00215
19. MRPS2  0.0234
20. MRPS18A  0.0389
21. MRPL15  0.041
22. IWS1  0.062
23. MRPS12  0.0958
24. BRD4  0.176
25. MRPL55  0.249
26. MRTO4  0.303
27. MRPS28  0.31
28. POLR2I  0.429
29. RPSA  0.449
30. WDR12  0.45
31. RPL10A  0.596
32. RPLP0  0.6
33. RPS20  0.612
34. RPS26  0.618
35. RPL8  0.63
36. RPS7  0.675
37. GTPBP4  0.746
38. RPS24  0.772
39. RPS19  1.02
40. HMGN2  1.68
